{"source": "paper PMC3236217", "molecules": {"B1": {"name": "arrestin-2, P17870 3A (protein)", "chain": "MGDKGTRVFKKASPNGKLTVYLGKRDFVDHIDLVEPVDGVVLVDPEYLKERRVYVTLTCAFRYGREDLDVLGLTFRKDLFVANVQSFPPAPEDKKPLTRLQERLIKKLGEHAYPFTFEIPPNLPCSVTLQPGPEDTGKACGVDYEVKAFCAENLEEKIHKRNSVRLVIRKVQYAPERPGPQPTAETTRQFLMSDKPLHLEASLDKEIYYHGEPISVNVHVTNNTNKTVKKIKISVRQYADICLFNTAQYKCPVAMEEADDTVAPSSTFCKVYTLTPFLANNREKRGLALDGKLKHEDTNLASSTLLREGANREILGIIVSYKVKVKLVVSRGGLLGDLASSDVAVELPFTLMHPKPKEEPPHREVPEHETPVDTNLIELDTNDDDAAAEDFARQRLKGMKDDKEEEEDGTGSPRLNDR"}, "B2": {"name": "arrestin-2, P17870 1-418 (natural protein)", "chain": "B1 chain with A386I, A387V, A388F"}, "B3": {"name": "arrestin-3, P32120 1-420 (natural protein)", "chain": "MGEKPGTRVFKKSSPNCKLTVYLGKRDFVDHLDKVDPVDGVVLVDPDYLKDRKVFVTLTCAFRYGREDLDVLGLSFRKDLFIANYQAFPPTPNPPRPPTRLQERLLRKLGQHAHPFFFTIPQNLPCSVTLQPGPEDTGKACGVDFEIRAFCAKSLEEKSHKRNSVRLVIRKVQFAPEKPGPQPSAETTRHFLMSDRSLHLEASLDKELYYHGEPLNVNVHVTNNSTKTVKKIKVSVRQYADICLFSTAQYKCPVAQVEQDDQVSPSSTFCKVYTITPLLSNNREKRGLALDGKLKHEDTNLASSTIVKEGANKEVLGILVSYRVKVKLVVSRGGDVSVELPFVLMHPKPHDHIALPRPQSAATHPPTLLPSAVPETDAPVDTNLIEFETNYATDDDIVFEDFARLRLKGLKDEDYDDQFC"}}, "key": {"inactive ERK2": {"target": "inactive ERK2 (UniProt P63086)", "assay": "pull-down; 9 µg active phosphorylated (without or with 1 mM ATP) or inactive ERK2 covalently attached to CNBr-activated Sepharose, 3 µg purified arrestin in 60 µl of 50 mM Tris-HCl pH 7.4, 100 mM KCl, 1 mM EGTA, 1 mM DTT, 20 min at 30°C; two washes; bound arrestin quantified by Western blot"}, "inactive ERK2, P63086": {"target": "T1, inactive ERK2, P63086", "T1 chain": "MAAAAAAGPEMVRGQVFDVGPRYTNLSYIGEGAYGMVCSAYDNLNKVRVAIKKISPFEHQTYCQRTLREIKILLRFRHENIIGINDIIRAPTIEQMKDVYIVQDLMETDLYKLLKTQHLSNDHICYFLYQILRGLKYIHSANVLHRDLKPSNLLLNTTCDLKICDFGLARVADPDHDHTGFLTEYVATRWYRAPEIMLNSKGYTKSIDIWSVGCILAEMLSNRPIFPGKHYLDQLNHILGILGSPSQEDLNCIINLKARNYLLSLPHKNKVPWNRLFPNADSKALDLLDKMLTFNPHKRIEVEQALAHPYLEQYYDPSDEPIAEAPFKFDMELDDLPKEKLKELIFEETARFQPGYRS", "assay": "pull-down on ERK2-Sepharose (CNBr-activated Sepharose with covalently attached ERK2), bound arrestin quantified by Western blot", "details": "chain shown with the change; no ATP; 9 µg immobilised ERK2, 3 µg arrestin in 60 µl; 50 mM Tris-HCl, pH 7.4, 100 mM KCl, 1 mM EGTA, 1 mM DTT; 20 min at 30°C; parent: est. 1.6; read off a plot"}, "[1]": {"target": "T2, active ERK2 phosphorylated at Thr183 and Tyr185 (PP-ERK2), P63086", "T2 chain": "T1 chain", "assay": "pull-down on ERK2-Sepharose (CNBr-activated Sepharose with covalently attached ERK2), bound arrestin quantified by Western blot", "details": "chain shown with the change, 9 µg immobilised ERK2, 3 µg arrestin in 60 µl, 50 mM Tris-HCl, pH 7.4, 100 mM KCl, 1 mM EGTA, 1 mM DTT, 20 min at 30°C, read off a plot"}, "[2]": {"target": "constitutively active MEK1, Q02750"}}, "note": "Residue numbers refer to the chain shown, from its start.", "data": [{"molecule": "arrestin-2 (from UniProt P17870 1-418) (natural protein)", "values": [{"measurement": "binding to inactive ERK2 as percent of that to the active form", "setting": "inactive ERK2", "result": 33, "unit": "%"}]}, {"molecule": "B1", "values": [{"measurement": "response", "setting": "inactive ERK2, P63086", "result": 0.9, "unit": "pmol"}, {"measurement": "response", "setting": "[1]; no ATP, parent: est. 4.6", "result": 1.4, "unit": "pmol"}, {"measurement": "response", "setting": "[1]; with 1 mM ATP, parent: est. 3.0", "result": 1.7, "unit": "pmol"}]}, {"molecule": "B2", "values": [{"measurement": "increase of ERK2 phosphorylation (32P incorporation) by purified MEK1 in the presence of 4.4 pmol arrestin-2, against no arrestin", "setting": "[2]", "result": 33, "unit": "%"}]}, {"molecule": "B3", "values": [{"measurement": "increase of ERK2 phosphorylation (32P incorporation) by purified MEK1 in the presence of 4.4 pmol arrestin-3, against no arrestin", "setting": "[2]", "result": 41, "unit": "%"}]}]}
